From the supplement of paper PMC12042874
± gives the uncertainty stated by the source.

experiment: amyloid nucleation score (Sup35N fusion, yeast selection) (log enrichment); library NNK3; higher = more nucleation; inactive = no reads after selection
Method in brief: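 Growth for 7 days at 30°C on medium lacking adenine and uracil followed a 24-hour induction with 100 μM copper sulfate of psi-negative yeast expressing peptides of 20 random codons fused to Sup35N. Input and output plasmid inserts were sequenced with Illumina, and sequences with under 100 input reads were excluded. Nucleation score is the DiMSum log enrichment of output over input reads, centred on the mode score of non-aggregating sequences.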

Amyloid nucleation score, -0.034 ± 0.31:
TLPMLDNTNNFTSPL

Amyloid nucleation score, 0.164 ± 0.56:
SYSSDWVLLGGMFFAKY

Amyloid nucleation score, 1.09 ± 0.11:
TMSIFDPVE

Amyloid nucleation score, 2.6 ± 0.078:
TCCSVLLIKVSSNEGD

Amyloid nucleation score, 1.23 ± 0.16:
TERVCVCVTFVLW

Amyloid nucleation score, 0.457 ± 0.4:
TSMMSWQSSHCHVYWRTDWV

Amyloid nucleation score, -0.299 ± 1.1:
TSSNRVLVIPVELMIPWRF

Amyloid nucleation score, -0.47 ± 1.9:
SWSGCGLVPSSVSWGYGTCV

Amyloid nucleation score, 0.871 ± 0.26:
TKSYPRTMFEPALALDMP

Amyloid nucleation score, 0.189 ± 0.26:
TQRVGERGIIMYHPWIGYYV

Amyloid nucleation score, 1.12 ± 0.11:
TFFFVVGHSNDEVYSCVKTV

Amyloid nucleation score, 0.004 ± 0.26:
SYYFMGHLVFSVQTCIYTQG

Amyloid nucleation score, 1.99 ± 0.072:
SWSTSNVVLNL

Amyloid nucleation score, 0.92 ± 0.13:
TPGNNSYAVLMLNELTYKPA

Amyloid nucleation score, -0.052 ± 1.2:
TNYFESFY

Amyloid nucleation score, -0.679 ± 1:
TSLASNFANVTSVTCY

Amyloid nucleation score, 0.207 ± 0.23:
TIFVVCIRIFVWFLCYGSDP

Amyloid nucleation score, 0.558 ± 0.16:
TISPFLINMFWLSCTLMSQE

Amyloid nucleation score, 1.02 ± 0.093:
SYYVICGTLMIIVVYFSSYN

Amyloid nucleation score, -0.581 ± 1.4:
TKGNCSAHPRRL

Amyloid nucleation score, -0.673 ± 1.1:
TALWYSYFSTKNDMSLQFAP

Amyloid nucleation score, -0.002 ± 0.9:
TGSNRSYIFFCWSRFNVMFG

Amyloid nucleation score, 3.36 ± 0.064:
TFCMLCYQNSIFTVYNSEYQ

Amyloid nucleation score, 0.898 ± 0.16:
TFRLILILRTSI

Amyloid nucleation score, 1.29 ± 0.084:
SVYFFQGTL

Amyloid nucleation score, 1.18 ± 0.16:
TQYMWAYPNND

Amyloid nucleation score, 0.554 ± 0.15:
TQNLNRRGKIRVVRDYIDYW

Amyloid nucleation score, 2.29 ± 0.08:
SYYVNVRYWSITCPIWGLSD

Amyloid nucleation score, 1.67 ± 0.061:
TSLLINVVLMVNRPGCP

Amyloid nucleation score, 2.2 ± 0.063:
TLHCSVYMCTTYGNTHLYVH

Amyloid nucleation score, -0.259 ± 0.8:
TFLELSIMYGRVTCNSLY

Amyloid nucleation score, 0.366 ± 0.42:
TCTYCRFRLSSLVSW

Amyloid nucleation score, -0.477 ± 0.8:
TSNFCPFTVQN

Amyloid nucleation score, inactive:
SWGFHEWSVACQICRYVDRP
SWGNHYLRGLICYFLLFTDT
SWIVRLWCVMWNNLFVFIRN
SWLIR
SWMVQLVNTGVRWLVLANDA
SWPSASSFDSR
SWRLYMMA
SWTSVSFRRMLMDSSR
SWYDHWSLIQDGLKRVNGG
SYANIWVIHKLDGFMESSLL
SYGHLQILKVMAIPSYAFPK
SYGVGWVYTEFGNLLRSFGL
SYLQQLDLSRDGTVLLKSGI
SYLYLCRIKVDLPFWSDRLV
SYMISPAVGKDRDM
SYMLNSCSWRTK
SYPGRLYSSGYDCVYSNRSR
SYQLCACK
SYRLSYLYPSTHHYLLNCLL
SYSVSCTDGWSIVFMFSHIA
SYVCWDIFIGQRSNAALSTI
SYVWYRNGM
SYWLQSPYDTESMSGFLLQI
SYWYACGKYADNSMER
SYYLRLYEVTWFSRFGFDRS
SYYSSDKMIVSVGLLKRDAK
TAFTGIRTWHCHCKRSYSLG
TAQTNPGVYYS
TATYKSYCTL
TCHDGHGAGRTVSGVFGGVA
TCKVVCRFFHIRACMLGVIL
TCMHC
TCRHPIPASLARSAAAVLVW
TCRMVRGSMMDSAVV
TCSFECGACTRQVDAVCQLG
TCTCGVFSD
TCTGCTSVTL
TCYFVYTRFFWGDRESKSTF
TCYITA
TDIFKSFIRNMNLVWFRVMT
TDKFWLIGDSTTSWIEVVFN
TDMMMFICE
TDPFLTCK
TDSCKGVWIMVGFALFLMWS
TDTLCDWYLPNRRWIKDNEW
TELVLRAVSSLGVLVIFTTS
TENCEFFTNPPARPYG
TFCFPWL
TFDSYPFVKGGISWPNMKYL
TFEEFESTARLGFHERGDFY
TFFWTRCDIVGREWVSNTVN
TFHSM
TFLNFSVIGVTSLGTDRAYD
TFLVALSYFVSLGYGSSQSM
TFSVYADETSKRTVFTVMIW
TFVHAYTGWMEFVV
TFYVLRPTYSITRNGAPRPL
TGLNGLRVLYSMRRPGKV
TGRVLGYGLL
TGSFIIRISSSRTMLW
TGVFDFRRVVLLVSHSEV
TGVSIKFTSSKYYSVTSATT
THRSRKSDPNRQSFIKCGHS
THRVTTRCLLRLLRWIRM
THTTAS
TIHSRMGIVLYFFAIDCVR
TIMAFIIAIRSLDRCQSSGM
TISSSLKRMWDIVFSLCNNI
TIVYSLT
TIYVLCGRTIRWFVLNPLQE
TKCLRVVKRTTYGSQEFLRK
TKCTYKLGYTLYTGVKDVVR
TKDRFFLKHTGRIMLGLRR
TKHPLYM
TKSYFRINMFAVLDRCGLCR
TKWVVASLVCKSAGKTGRVI
TLCSSGGMFHRSMDSITMS
TLFWMSYWMRPSNIHCCVRM
TLIHGGFTYLDQWKDETCPQ
TLLLAMNDVTSRLL
TLNLVSSTICLFR
TLPLTHYVYVVMLKSSSTGC
TLPMYTRCTTFAHLSSS
TLRGMGQHRQR
TLRMTWALSIRLSPLL
TLSKILLLSRYLYTRLKVRL
TLVSQMPCNM
TLYVFWCEQFKRAYWLYVSK
TMHYFQNTAIDRYEMTAP
TNEIDLSEFMLQITLMLIRG
TNINSYGLKIESGGWNQLN
TNTNLMYGSGYLLLNGMQCN
TNTRASMFIFCVHSMSLLFY
TPCNRREISWFVFSLPA
TPLARFFTCPHIYYLSPGHS
TPLITYHQWFLAICEWLDF
TPNRGDFWITCSGGVGVWYG
TPTWFLRWWFTVSINNMVIW
TQGSLTILLGLVTEMLCAYS
TRAYVVAIDQYFRGRRRNI
TRCSG
TRDFRTCNGLANKVRSKVCS
TREIIYRDGQALQIAGWVSP
TRGRNTKDGVDGDLPADVLV
TRLLAGFSWYVTFPVNVSGS
TRSFCVSK
TRSWVYCSKDRSMRGMHHHC
TRVDGTYKYRLFDLCDAIKF
TRWGFVCNKTHVLGDMSIGM
TRYLSSFISYGEDSMHVFCG
TSCRLRV
TSIIRMAPRPTHSRVIWFKV
TSLVKRSALVFYTGTLIYPF
TSSAHNTRSCLMM
TSSHLIGLFYDMLFRDTRSM
TSSLWHWMCLEITLPSRSCK
TSTSAYILGPVTQ
TSWRVFVGYWMG

Amyloid nucleation score, 1.03 ± 0.24:
TCIGNNPMPYFTFCITHNAM

Amyloid nucleation score, 1 ± 0.091:
TLWCNLSSGMMNFPTASRNL

Amyloid nucleation score, 1.58 ± 0.11:
TSCFYFAMVFEQVDWDSVHT

Amyloid nucleation score, 1.48 ± 0.14:
TDYQNWFNVEINKF

Amyloid nucleation score, 0.798 ± 0.2:
TNLSSSFLTQLRVILMSFLG

Amyloid nucleation score, -0.097 ± 0.69:
TFWVFIAQKRCSGGKYGCMC

Amyloid nucleation score, -0.497 ± 1.3:
TPKLAALFS

Amyloid nucleation score, 1.55 ± 0.12:
TFFFTVLG
